Experimental data published in patent publication US20120164110A1, “DIFFERENTIALLY METHYLATED REGIONS OF REPROGRAMMED INDUCED PLURIPOTENT STEM CELLS, METHOD AND COMPOSITIONS THEREOF” (priority 2009, published 2012).
Entries after “also recorded” stand apart in the source; their conditions may differ.

Key:
[1] = tested on: intermediate or partial states of reprogramming; settings: cited from earlier work
B-NP-iPSC = assay: methylcellulose hematopoietic colony forming assay of EB-differentiated cells; format: cell-based, mouse; settings: Wnt3a 40 ng/ml in EB culture media between day 2 and 4, versus non-treated EBs
Description: (§1) Differentiation of iPSC to hematopoietic and osteogenic lineages was performed as follows. Hematopoietic colony forming activity of d6 EBs differentiated from pluripotent stem cells was measured in methylcellulose medium with IL3, IL6, Epo, and SCF (M3434, StemCell Tech.) as described in Kyba et al. (Cell (109)29-37 (2002)). Hematopoietic colony type was determined on day 10. Colony identity was confirmed by leukostain analysis of cytospin preparation of the methylcellulose colonies. Osteogenic differentiation was performed by culturing pluripotent stem cells in 15 μl hanging drops (800 cells/drop) in ES differentiation media^16. Embryoid bodies (EB) from hanging drops were collected at 2 days, transferred to a 10 cm dish of non-tissue culture grade plastic with 10^−6 M of retinoic acid, and cultured for 3 days on the shaker (50 rpm) in an incubator. EBs were equally distributed among 3 wells of a 6-well tissue culture dish, and cultured in aMEM media supplemented with 10% FBS, 1× penicillin/streptomycin/glutamine (Invitrogen), 2 nM triiodothyronine, 1× insulin/transferrin/[…] (Gibco, #51300-044). The media were changed every other day. On day 11, one well of each sample was used to measure calcium concentration, osteogenic gene expression (RNA isolation), and for Alizarin Red staining. For Alizarin Red staining, cells were washed with PBS and fixed with 4% paraformaldehyde for 5 minutes at 20 C. Fixed cells were incubated for 15 minutes in Alizarin Red staining solution (Alizarin Red (Sigma, A5533) 2% in H2O, pH 4-4.3 adjusted with NH4OH, filtered with 0.45 uM membrane), and washed with Tris-HC1, pH4.0. Elemental calcium concentrations were measured by inductively coupled plasma—atomic emission spectroscopy (ICP-AES, HORIBA Jobin Yvon Activa-M) as described in Nomlru et al. (Anal. Chem. (66)3000-3004 (1994)) at the Center for Materials Science and Engineering at MIT, and three measurements were conducted to obtain mean and standard deviation values. […]

NP-iPSC = assay: as above; format: cell-based, mouse; settings: Wnt3a 40 ng/ml in EB culture media between day 2 and 4, versus non-treated EBs
Description: as §1

NSC-NP-iPSC = assay: as above; format: cell-based, mouse; settings: Wnt3a 40 ng/ml in EB culture media between day 2 and 4, versus non-treated EBs
Description: as §1

Row | Molecule | effect on intermediate states of reprogramming [1] | hematopoietic potential (B-NP-iPSC) | blood-forming potential (NP-iPSC) | blood-forming potential (NSC-NP-iPSC)
1 | Nc1ncn([C@@H]2O[C@H](CO)[C@@H](O)[C@H]2O)c(=O)n1 [5-AZA, 5-azacytidine] | can convert intermediate states to full pluripotency | – | – | –
2 | Wnt3a: exogenous Wnt3a cytokine (R&D System, 1324-WN-002/CF) (protein, UniProt P56704 19-352, looked up) Protein Wnt-3a: SYPIWWSLAVGPQYSSLGSQPILCASIPGLVPKQLRFCRNYVEIMPSVAEGIKIGIQECQHQFRGRRWNCTTVHDSLAIFGPVLDKATRESAFVHAIASAGVAFAVTRSCAEGTAAICGCSSRHQGSPGKGWKWGGCSEDIEFGGMVSREFADARENRPDARSAMNRHNNEAGRQAIASHMHLKCKCHGLSGSCEVKTCWWSQPDFRAIGDFLKDKYDSASEMVVEKHRESRGWVETLRPRYTYFKVPTERDLVYYEASPNFCEPNPETGSFGTRDRTCNVSSHGIDGCDLLCCGRGHNARAERRREKCRCVFHWCCYVSCQECTRVYDVHTCK | – | little effect | restored; also recorded: enhanced | restored
